The target in the experiment is HLA-A*02:01 (Homo sapiens, UniProt P04439, D140Y/D185E/D98H/E176V/E277Q/G131W/G231S/I119V/I121R/I166T/I218V/L300P/L318F/N151K/N90K/P208A/P217A/Q86G/Q94H/R138H/R169H/T345S). As to the kind of experiment: MHC binding assay (UV-ligand exchange, β2m ELISA, peptide exchange yield). The following applies: binding to HLA-A*02:01. The method in brief:
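Peptide-HLA-A*02:01 complexes formed by UV-mediated exchange of a photocleavable ligand; exchange yield measured by streptavidin-capture ELISA detecting β2m with HRP anti-β2m, TMB read at 450 nm. Refolded monomer standards 15-500 ng/ml; samples diluted 100-fold.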
Regarding “134 (MLLEHGITLV; listed as Homo sapiens) [compound 134]”, the “Peptide Exchange (MHC class I binding score, peptide exchange yield)” value (from here on “Peptide Exchange”) is ““++++” (>75% = ++++)”.
With “191 (YIFDGSDGGV; listed as Homo sapiens) [compound 191]” the entry was ““+++” (>50 = +++)”; with “138 (NLLDIDAPVTV; listed as Homo sapiens) [compound 138]”, ““+++” (>50 = +++)”; with “340 (KLLEEICNL; listed as Homo sapiens) [compound 340]”, ““++++” (>75% = ++++)”.
With “141 (QILSEIVEA; listed as Homo sapiens) [compound 141]” the entry was ““++” (>20% = ++)”; with “60 (FVLDHEDGLNL; listed as Homo sapiens) [compound 60]”, ““+++” (>50 = +++)”.
Then “230 (FLQDSKVIFV; listed as Homo sapiens) [compound 230]”, with ““+++” (>50 = +++)”.
For the substance “92 (ILEPLNPLL; listed as Homo sapiens) [compound 92]”, the “Peptide Exchange” value is ““+++” (>50 = +++)”.
With “334 (YLLEEKIASL; listed as Homo sapiens) [compound 334]” the entry was ““+++” (>50 = +++)”; with “34 (YLPYIFPNI; listed as Homo sapiens) [compound 34]”, ““+++” (>50 = +++)”.
With “124 (LLLEETEKQAV; listed as Homo sapiens) [compound 124]” the entry was ““+++” (>50 = +++)”.
With “44 (FLLSINDFL; listed as Homo sapiens) [compound 44]” the entry was ““+++” (>50 = +++)”; with “103 (KLGGTPAPA; listed as Homo sapiens) [compound 103]”, ““++” (>20% = ++)”.
Consider “285 (GVATAGCVNEV; listed as Homo sapiens) [compound 285]”, for which the “Peptide Exchange” value was ““++++” (>75% = ++++)”.
In the case of “75 (GLSIFAQDLRL; listed as Homo sapiens) [compound 75]”, the “Peptide Exchange” value is listed as ““++” (>20% = ++)”.
Then “259 (RLLDEQFAVL; listed as Homo sapiens) [compound 259]”, with ““+++” (>50 = +++)”; and “313 (LMADLEGLHL; listed as Homo sapiens) [compound 313]”, with ““+++” (>50 = +++)”; and “291 (ILLNEDDLVTI; listed as Homo sapiens) [compound 291]”, with ““+++” (>50 = +++)”.
Then “246 (KLDETGVAL; listed as Homo sapiens) [compound 246]”, with ““++” (>20% = ++)”.
With “280 (YTLDSLYWSV; listed as Homo sapiens) [compound 280]” the entry was ““+++” (>50 = +++)”.
In the case of “45 (FLPELPADLEA; listed as Homo sapiens) [compound 45]”, the “Peptide Exchange” value is ““+++” (>50 = +++)”.
For “135 (MTAGFSTIAGSV; listed as Homo sapiens) [compound 135]”, the “Peptide Exchange” value was ““+” (>10% = +)”.
Then “16 (ALPGGAAVAAV; listed as Homo sapiens) [compound 16]”, with ““++++” (>75% = ++++)”.
Then “37 (FIMEGGAMVL; listed as Homo sapiens) [compound 37]”, with ““++++” (>75% = ++++)”.
Then “10 (FVYGESVEL; listed as Homo sapiens) [compound 10]”, with ““+++” (>50 = +++)”; and “188 (VMGDIPAAV; listed as Homo sapiens) [compound 188]”, with ““++” (>20% = ++)”; and “318 (NLQVTQPTV; listed as Homo sapiens) [compound 318]”, with ““+++” (>50 = +++)”.
With “236 (GLLESGRHYL; listed as Homo sapiens) [compound 236]”, the “Peptide Exchange” value is ““+++” (>50 = +++)”.
As to “255 (YLFEEAISM; listed as Homo sapiens) [compound 255]”, the “Peptide Exchange” value is reported as ““+++” (>50 = +++)”.
On to “316 (MLLEHGITL; listed as Homo sapiens) [compound 316]”, for which the “Peptide Exchange” value is ““+++” (>50 = +++)”.
“221 (ALVSTIIMV; listed as Homo sapiens) [compound 221]”: the “Peptide Exchange” value is given as ““+” (>10% = +)”.
In the case of “76 (GLLRIIPYL; listed as Homo sapiens) [compound 76]”, the “Peptide Exchange” value is reported as ““+++” (>50 = +++)”.
With “250 (LLVQEPDGLMV; listed as Homo sapiens) [compound 250]”, the “Peptide Exchange” value is given as ““+++” (>50 = +++)”.
As to “379 (YLAELVTPIL; listed as Homo sapiens) [compound 379]”, the “Peptide Exchange” value is recorded as ““+++” (>50 = +++)”.
Then “79 (GLQAKIQEA; listed as Homo sapiens) [compound 79]”, with ““+++” (>50 = +++)”; and “125 (LLLEIGEVGKLFV; listed as Homo sapiens) [compound 125]”, with ““+++” (>50 = +++)”; and “298 (IILPVEVEV; listed as Homo sapiens) [compound 298]”, with ““+++” (>50 = +++)”.
Then “119 (VLPAEFFEV; listed as Homo sapiens) [compound 119]”, with ““+++” (>50 = +++)”; and “308 (SLYDVSRMYV; listed as Homo sapiens) [compound 308]”, with ““++++” (>75% = ++++)”.
For “249 (LLPTGVFQV; listed as Homo sapiens) [compound 249]”, the “Peptide Exchange” value was ““+++” (>50 = +++)”.
With “288 (GLAESTGLLAV; listed as Homo sapiens) [compound 288]” the entry was ““+++” (>50 = +++)”; with “329 (VLMDGSVKL; listed as Homo sapiens) [compound 329]”, ““++++” (>75% = ++++)”; with “341 (LLAELPASVHA; listed as Homo sapiens) [compound 341]”, ““+++” (>50 = +++)”.
Then “333 (VTLEFPQLIRV; listed as Homo sapiens) [compound 333]”, with ““+++” (>50 = +++)”; and “371 (SLADDSVLERL; listed as Homo sapiens) [compound 371]”, with ““+++” (>50 = +++)”; and “279 (YMAPEVVEA; listed as Homo sapiens) [compound 279]”, with ““+++” (>50 = +++)”.
“121 (RLYEITIEV; listed as Homo sapiens) [compound 121]”: the “Peptide Exchange” value is listed as ““++++” (>75% = ++++)”.
Then “104 (KLILLDTPLFL; listed as Homo sapiens) [compound 104]”, with ““+++” (>50 = +++)”; and “165 (TLDDDLDTV; listed as Homo sapiens) [compound 165]”, with ““++” (>20% = ++)”; and “310 (LLSTLHLLV; listed as Homo sapiens) [compound 310]”, with ““+++” (>50 = +++)”.
With “128 (LLSEEEYHL; listed as Homo sapiens) [compound 128]” the entry was ““+++” (>50 = +++)”; with “173 (TVIENIHTI; listed as Homo sapiens) [compound 173]”, ““++” (>20% = ++)”; with “145 (SALDTITTV; listed as Homo sapiens) [compound 145]”, ““+++” (>50 = +++)”.
As for “215 (VMQDIVYKL; listed as Homo sapiens) [compound 215]”, the “Peptide Exchange” value is ““+++” (>50 = +++)”.
With “374 (VLSVITEEL; listed as Homo sapiens) [compound 374]” the entry was ““+++” (>50 = +++)”.
Then “181 (VLLSIPFVSV; listed as Homo sapiens) [compound 181]”, with ““+++” (>50 = +++)”; and “296 (FIAPTGHSL; listed as Homo sapiens) [compound 296]”, with ““++” (>20% = ++)”.
As to “163 (SQLDISEPYKV; listed as Homo sapiens) [compound 163]”, the “Peptide Exchange” value was ““+++” (>50 = +++)”.
Regarding “254 (QLIPKLIFL; listed as Homo sapiens) [compound 254]”, the “Peptide Exchange” value is ““+++” (>50 = +++)”.
With “30 (ELLEGSEIYL; listed as Homo sapiens) [compound 30]”, the “Peptide Exchange” value is ““+++” (>50 = +++)”.
With “360 (HLIDTNKIQL; listed as Homo sapiens) [compound 360]”, the “Peptide Exchange” value is recorded as ““+++” (>50 = +++)”.

The record behind these values is patent US11260115B1, “Peptides and combination of peptides for use in immunotherapy against CLL and other cancers” (immatics biotechnologies GmbH, priority 2015, dated 2022).
